The nanobody polyreactivity screen of Harvey et al. (2022)

experiment: yeast display, Sf9 membrane polyspecificity reagent, FACS + sequencing; frameworks hold sequencing errors
In short: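 Synthetic nanobody libraries on Saccharomyces cerevisiae BJ5465 were galactose-induced for 36–48 hours, stained 1 hour at 4 °C with 10% biotinylated, detergent-solubilized Sf9 membrane reagent and enriched on streptavidin microbeads. FACS then separated cells into low and high (top ~1%) gates by anti-HA (expression) and streptavidin (reagent binding) fluorescence. Genes were colony-PCR amplified, MiSeq 2 × 250 sequenced and CDR-length filtered. A clone's polyreactivity label is that of its gate of origin.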

| Sequence | polyreactivity (PSR sort gate) |
| --- | --- |
| QVQLVESGGGLVQAGGSLRLSCAASGRIFRFYAMGWYRQAPGKERELVAAINSRGGSTYYADSVKGRFTISRDNAKNTVYLQMNSLKPEDTAFYYCNARSGFGYGYGYWGQGTQVTVSS | high polyreactivity |
| QVQLVESGGGLVQAGGSLRLSCAASGRIFRFYAMGWYRQAPRKERELVATIRRGDSTSYADSVKGRFTISRDNAKNTVYLQMNSLKPEDTAVYYCAAVWPSHVGTTYFWHKYGYWGQGTQVTVSS | high polyreactivity |
| QVQLVESGGGLVQAGGSLRLSCAASGRIFRGYAMGWSRQAPGKERELVAVISYSGTRTYYADSVKGRFTISRDNAKNTVYLQMNSLKPEDTAVYYCNARANGFKDGYWGQGTQVTVSS | high polyreactivity |
| QVQLVESGGGLVQAGGSLRLSCAASGRIFRGYAMGWYRQAPGKEREFVAAITKNGGSTYYADSVKGRFTISRDNAKNTVYLQMHSLKPEDTAVYYCAVRAWDPYTGKSDYWGQGTQVTVSS | low polyreactivity |
| QVQLVESGGGLVQAGGSLRLSCAASGRIFRGYAMGWYRQAPGKERELVAAINGGDSTYADSVKGRFTISRDNAKNTVFLQMNSLIPEDTAVYYCAAAHYFLGPQGASFYYWGQGTQVTVSS | low polyreactivity |
| QVQLVESGGGLVQAGGSLRLSCAASGRIFRGYAMGWYRQAPGKERELVAAISGRGGRTNYADSVKGRFTISRDNAKNTVYLQMNSLKPEDTAVYYCATVPYTASRYEYWGQGTQVTVSS | high polyreactivity |
| QVQLVESGGGLVQAGGSLRLSCAASGRIFRGYAMGWYRQAPGKERELVAAISRRGGSTSYADSVKGRFTISRDNAKNTVYLQMNSLKPEDTAVYYCAVDYSKNGDDYWGQGTQVTVSS | high polyreactivity |
| QVQLVESGGGLVQAGGSLRLSCAASGRIFRGYGMGWYSQAPGKERVLVAAITSRGGSTYYADSVKGRFTSSRDNAKNTVYLQMNSLKPQDTAVYYCYAVAFYYVGSKTYTRGLDYWGQGTQVTVSS | high polyreactivity |
| QVQLVESGGGLVQAGGSLRLSCAASGRIFRGYVMGWYRQAPGKERELVAAISSSGGSTYYADSVKGRFTISRDNAKNTVYLQMNSLKPEDTAVYYCAAAKWFFYGRKYGKYDYWGQGTQVTVSS | high polyreactivity |
| QVQLVESGGGLVQAGGSLRLSCAASGRIFRGYVMGWYRQAPGKERELVARITKSGGRTYYADSVKGRFTISRDNAKNTVYLQMNSLKPEDTAVYYCNTAWTGYPRYQYGGNYWGQGTQVTVSS | high polyreactivity |
| QVQLVESGGGLVQAGGSLRLSCAASGRIFRHNAMGWYRQAPGKERELVAAISGGGTTYYADSVKGRFTISRDNAKNTVYLQMNSVKPEDTAVYYCAARRRGSVGVGYAYPYNYWGQGTQVTVSS | high polyreactivity |
| QVQLVESGGGLVQAGGSLRLSCAASGRIFRHYAMGWYRQAPGKERELFAAIDWDGDTTYYADSVKGRFTISRDNAKNTVYLQMNSLKPEDNAVSYCAAEFYSLGKAIYEYWGQGTQVTVSS | high polyreactivity |
| QVQLVESGGGLVQAGGSLRLSCAASGRIFRHYAMGWYRQAPWKERELVATITSGGRTNYADSVKGRFTISRDNAKNTVYLQMNSLKPEDTAVYYGAVDTWGSSWYDLFRETSDYWGQGTQVTVSS | low polyreactivity |
| QVQLVESGGGLVQAGGSLRLSCAASGRIFRINAMGWYRQAPGKERELVASISRRGGNTYYADSVKGRFTISRDNAKNTVYLQMNSLKPEDTAVYYCAADTYQERTFDYWGQGTQVTVSS | low polyreactivity |
| QVQLVESGGGLVQAGGSLRLSCAASGRIFRIYTMGWYREAPGKERELVAAISKSGGGTYYADSVKGRFTISRDNAKNTVYLQMNSLKPEDTAVYYCAAVSPNTAYDYWGQGTQVTVSS | high polyreactivity |
| QVQLVESGGGLVQAGGSLRLSCAASGRIFRLYAMGWYRQAPGKERELVAAIRSATRTTYADSVKGRFTISRDNAKNTVYLQMNSLKPEDTAFYYCAARLWRYSDVSKYYSWGQGTQVTVSS | high polyreactivity |
| QVQLVESGGGLVQAGGSLRLSCAASGRIFRLYTMGWYRQAPGKERELVAAISSAGSTKYADSVKGRFTISRDNAKNTVYLQMNSLKPEDTAVYYCAAGRYYYRSGFYTPVRYYSWGQGTQVTVSS | high polyreactivity |
| QVQLVESGGGLVQAGGSLRLSCAASGRIFRNYAMGWYRQAPGKERELVAAISVSGGRTYYADSVKGRFTISRDNAKNTVYLQMNSLKPEDTAVYYCAARTGRQGYSRGYNSWGQGTQVTVSS | high polyreactivity |
| QVQLVESGGGLVQAGGSLRLSCAASGRIFRNYAMGWYRQATGKERELVAAISTRSGSTYYADSVKGRSTISRDNAKNTVYLQMNSLKPEDTAVYYCNKVSVGRYYALYYWGQGTQVTVAS | high polyreactivity |
| QVQLVESGGGLVQAGGSLRLSCAASGRIFRPNAMGWYRQAPGKEREFVAAITSSSGTTYYADSVKGRFTISRDNAKNTVYLQMNSLKPEDTAVYYCAAAQRSVRLKFGYWGQGTQVTVSS | high polyreactivity |
| QVQLVESGGGLVQAGGSLRLSCAASGRIFRPNAMGWYRQAPGKERELVAAISYSGATTYYADSVKGRFTISRDNAKNTVYLQMNSLKPEDTAVYYCAADTPDAPDYSGFYYWGQGTKVTVSS | low polyreactivity |
| QVQLVESGGGLVQAGGSLRLSCAASGRIFRPNAMGWYRQAPGKERELVATITSDGSTKYADSVKGRFTISRDNAKNTVYLQMNSLKPEDTAVYYCAVRWARRYRYYYWGQGTQVTVSS | high polyreactivity |

| Sequence | polyreactivity (PSR sort gate) |
| --- | --- |
| QVQLVESGGGLVQAGGSLRLSCAASGRIFRPYAMGWYRQAPGKERELVAGITSSGGSTYYADSVKGRFTISRDNAKNTVYLQMNSLKPEDTAVYYCAADYGWGSGFEYDYWGQGTQVTVSS | low polyreactivity |
| QVQLVESGGGLVQAGGSLRLSCAASGRIFRRNAIGWYRQAPGKERELEAAISSGCGSKYYADSVKGRFTISRDNAKNTVYLQMNSLKPEDTAVYYCNTVFYYDDVSQAHDYWGQGTQVTVSS | high polyreactivity |
| QVQLVESGGGLVQAGGSLRLSCAASGRIFRRNTKGWYRQAPGKERELVAAITSAGGSTYADSVKGRFTISRDNAKNTVYFQMNSLKPEDTAVYYCATYVAYHRGYRTYDHWAQGTQVTVSS | low polyreactivity |
| QVQLVESGGGLVQAGGSLRLSCAASGRIFRRYAMGWYRQAPGKERELVAAISSGGSTNYADSVKGRFTLSRDNAKNTVYLQMNSLKPEDTAVYYCAARRTATTSRAYYYWGQGTQVTVSS | high polyreactivity |
| QVQLVESGGGLVQAGGSLRLSCAASGRIFRRYAMGWYRQAPGKERELVAAITSGGSTYADSVKGRFTISRDNAKNTVYLQMNSLKPEDTAVYYCAADDAQGFDYWGQGTQVTVSS | high polyreactivity |
| QVQLVESGGGLVQAGGSLRLSCAASGRIFRRYAMGWYRQAPGKERELVAALTRSGGSTYYADSVKGRFTISRDNAKNTVYLQMNSLKPEDTAVYYCYAPSSLGTDYDYWGQGTQVTVSS | high polyreactivity |
| QVQLVESGGGLVQAGGSLRLSCAASGRIFRSNAMGWYRQAPGKERELVAAISGSGSTTNYADSVKGRFTISRDNAKNTVYLQMNSLKPEDTAVYYCATGKRGVSGRGFRYDYWGQGTQVTVSS | high polyreactivity |
| QVQLVESGGGLVQAGGSLRLSCAASGRIFRSNVMGWYRQAPGKERELVAAITGRGSSTYYADSVKGRFTISRDNAKNTVYLQMNSLKPEDTAVYYCAKASRYWSLYYWGQGTQVTVSS | high polyreactivity |
| QVQLVESGGGLVQAGGSLRLSCAASGRIFRSYALGWYRQAPGKERELVAAISSSDGSTYYADSVKGRFTISRDNAKNTVYLQMNSLKPEDTAVYYCNAEQVCYTYGRYPEWYLYGYWGQGTQVTVSS | low polyreactivity |
| QVQLVESGGGLVQAGGSLRLSCAASGRIFRSYAMGWYRQAPGKERELVAAISGSGGSTYYADSVKGRFTISRDNAKNTVYLQMNSLKPEDTAVYYCNRARGASYHGQSDYWGQGTQVTVSS | high polyreactivity |
| QVQLVESGGGLVQAGGSLRLSCAASGRIFRSYAMGWYRQAPGKERELVAAISSGVITYYADSVKGRFTISRDNEKNTVYLQMNSLKPEDTAVYYCNARWRFLYDYWGQGTQVTVSS | high polyreactivity |
| QVQLVESGGGLVQAGGSLRLSCAASGRIFRVNAMGWYRQAPGKERELVAAISRRGGRTYYADSVKGRFTISRDNAKNTVYLQMNSMKPEDTAVYYCNADSVTSAGSLGRAEYGYWVQGTQVTVSS | high polyreactivity |
| QVQLVESGGGLVQAGGSLRLSCAASGRIFRVNAMGWYRQAPGKERELVARIDSGGRTNYADSVKGRFTISRDNAKNTVYLQMTSLKPEDTAVYYCARVFSLARSWYRYYYWGQGTQVTVSS | high polyreactivity |
| QVQLVESGGGLVQAGGSLRLSCAASGRIFRVYALGWSRQAPGKERELVAAITSGGSTYYADSVKGRFTISRDNAKNTVYLQMNSLKPEDSAVYYCAAKRFRYRPGDYWGQGTQVTVSS | high polyreactivity |
| QVQLVESGGGLVQAGGSLRLSCAASGRIFRVYAMGWSRQAPGKERELVASITRTGGGTYYADSVKGRFTNSRDNAKNTVYLQMNRLKPEDPAVYYCAADAFIPGYQLHYHWGQGTQVTVSS | low polyreactivity |
| QVQLVESGGGLVQAGGSLRLSCAASGRIFRVYAMGWYRPAPGKERELVATIRRGSSTYYADSVKGRFTISRDNAKNTVYLQMNSLKPEDTAVYYCADRSSRRGPISEGDYWGQGTQVTVSS | high polyreactivity |
| QVQLVESGGGLVQAGGSLRLSCAASGRIFRVYAMGWYRQAPGKERELVAAISSSGGSTYYADSVKGRFTISRDNAKNTVYLQMNSLKPEDTAVYYCAAGGLHTIQRPGYYYWGLGTQVTVSS | low polyreactivity |
| QVQLVESGGGLVQAGGSLRLSCAASGRIFRVYAMGWYRQAPGKERELVAAISWSGGRTYYADSVKGRFTISRDNAKNTVYLQMNSLKPEDTAVYYCAAERGGPTYYSGGDYDYWGQGTQVTVSS | high polyreactivity |
| QVQLVESGGGLVQAGGSLRLSCAASGRIFRWYAMGWYRQAPGKERELVATISSSGRTNYADSVKGRFTISRDNAKNTVYLQMNSLKPEDTAVYYCNADGGDWFGYVGMDYWGQGTQVTVSS | high polyreactivity |
| QVQLVESGGGLVQAGGSLRLSCAASGRIFRWYAMGWYRQAPGKERELVATISSTGGSTYYADSVKGRFTISRDNAKNTDYLQMNSLKPEDTAVYDCNAVVYGIFLYAWYDYWGQGTQVTVSS | low polyreactivity |
| QVQLVESGGGLVQAGGSLRLSCAASGRIFRYNALGWYRQAPGKERELVAAITWNGASTFYADSVKGRFTISRDNAKNTVYLQMNSLKPEDTAVYYCATVRDISGYLYWSYNLYDYWGQGTQVTVSS | high polyreactivity |
